From publication PMC5493634, “Intermolecular steric inhibition of Ephexin4 is relieved by Elmo1” (Scientific Reports, 2017)

Target: the molecule itself
Assay: cross-linking; 293T cells transfected with Ephexin4-FLAG, cells incubated with or without 0.25 mM BMH (PBS pH 7.3, 5 mM EDTA) at room temperature for 1 h, then lysed; anti-FLAG immunoblot (Fig. 2d)

B1: Ephexin4 (full-length, wild type) (natural protein, UniProt Q5VV41 1-709, looked up)
chain: MAQRHSDSSLEEKLLGHRFHSELRLDAGGNPASGLPMVRGSPRVRDDAAFQPQVPAPPQPRPPGHEEPWPIVLSTESPAALKLGTQQLIPKSLAVASKAKTPARHQSFGAAVLSREAARRDPKLLPAPSFSLDDMDVDKDPGGMLRRNLRNQSYRAAMKGLGKPGGQGDAIQLSPKLQALAEEPSQPHTRSPAKNKKTLGRKRGHKGSFKDDPQLYQEIQERGLNTSQESDDDILDESSSPEGTQKVDATIVVKSYRPAQVTWSQLPEVVELGILDQLSTEERKRQEAMFEILTSEFSYQHSLSILVEEFLQSKELRATVTQMEHHHLFSNILDVLGASQRFFEDLEQRHKAQVLVEDISDILEEHAEKHFHPYIAYCSNEVYQQRTLQKLISSNAAFREALREIERRPACGGLPMLSFLILPMQRVTRLPLLMDTLCLKTQGHSERYKAASRALKAISKLVRQCNEGAHRMERMEQMYTLHTQLDFSKVKSLPLISASRWLLKRGELFLVEETGLFRKIASRPTCYLFLFNDVLVVTKKKSEESYMVQDYAQMNHIQVEKIEPSELPLPGGGNRSSSVPHPFQVTLLRNSEGRQEQLLLSSDSASDRARWIVALTHSERQWQGLSSKGDLPQVEITKAFFAKQADEVTLQQADVVLVLQQEDGWLYGERLRDGETGWFPEDFARFITSRVAVEGNVRRMERLRVETDV
notes: Ephexin4, guanine nucleotide-exchange factor for RhoG; full-length; also called Epx4; Ephexin4-FLAG
stoichiometry N: 3
